For this test, the target named is GST-tagged actin-binding domain of melanophilin (GST-Mlph-ABD), ATTO-488-labeled (UniProt Q91V27). In words: MST; ATTO-488-labeled GST-Mlph-ABD (diluted to 40 nM in MST buffer: 50 mM Tris-HCl pH 7.8, 100 mM NaCl, 10 mM MgCl2, 0.05% Tween-20) mixed 1:1 with a 16-step two-fold dilution series of the His-tagged Myo5a tail from 40 uM in His-tag protein dialysis buffer; Monolith NT.115; three repetitions.
UniProt Q91V27, sequence (Q91V27 401-590): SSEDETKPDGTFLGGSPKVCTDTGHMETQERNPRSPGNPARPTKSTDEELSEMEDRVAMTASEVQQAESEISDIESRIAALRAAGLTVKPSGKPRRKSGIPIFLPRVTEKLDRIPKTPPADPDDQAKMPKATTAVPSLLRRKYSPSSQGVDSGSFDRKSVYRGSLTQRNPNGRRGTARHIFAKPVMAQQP

The Kd is the concentration at which binding is half-saturated. Low values mean tighter binding, high ones weaker binding. “His-tagged middle tail domain of myosin-5a (His-Myo5a-MTD) (from UniProt Q99104 1-1853) (domain or fragment)” showed a Kd of 562 nM.

The values above are taken from PMC11825297.
